Assay: soluble fraction after stress (log2 fold change); higher = more stays soluble; pooled small domains, quantitative proteomics
Details: stress: pH 4
Summary of the method: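 How much of each domain stays soluble after acid stress, expressed as a fold change, is used to gauge aggregation propensity. Pooled custom libraries of small domains underwent pH 4 stress before high-throughput quantitative proteomics. A higher log2 value means more of the domain stayed soluble.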

| Sequence | soluble fraction (log2) |
| --- | --- |
| HMRDLITYVVQINGKLRGKLEVAPDTDPEELKALALEVENVKRSLEGWVVKKVIVVPGKMVSIAAG | -0.105 |
| HMQVIDNHWRPSRDALDILLRDGISEHFIEDAIPEFILYWRERGTQDSNWNSRFLQHIRLQWARYTNAV | -0.936 |
| HMPVEQVWHIAEAGKTKGPFSRASMGRMSADGALTRDTLVWTAGQDGWKKAADVTALATLFT | -0.0499 |
| HMAAMSLGERIGAHRKRMGISQEELGHRMGVSRQAVSKWETGRAVPDMENLLALARLFGVPVSELAD | -0.0628 |
| HMKPPVQVIGKAVVTASSLNVRTGPGTGHGIITSLPRNTEVELLEQQGEWYKIRRGSTVGYVHGGYLKIN | -0.095 |
| HMRRPRGVFNLVPRGFKRFGFITPDGGGEDMFAHLENVRAGHVVEDRNAVEYGIGRGPDGRDQAVDIVPVP | -0.112 |
| HMKHYMKITDISLQTRDKNRVNVSVDGKYRFSLDVFQVGELGLKVGREYTDEELTALEDESQFG | 0.0815 |
| HMEGMQATVTQITDEGITVRYVMNGQMVTRTLTSDEVAFVNRGQAVSDLAGAYRVGQTVWIY | -0.179 |
| HMGGQEEALNRLVLRELLGTLEKKERDLIVRRYFYDQTQTKIAEALGISQVQVSRMEKRILKKMREGF | -0.833 |
| HMASELQQVQALLESQRYNEALILIETTIGKGASESTELLFARADVFASSGRHDEAEQAYREL | -0.45 |
| HMKSDELTKRRRLQIIEAAERSFRKRGFHATTLREIAAEFGMSVGHIYNYFSGKDAILEALIHQKIDD | -0.429 |
| HMKRITKKELKQAIVDVFADKPGQSFNYKQLATIIGIKDDPTRRMITDILYELVQEERIVELYRGKFKMEM | -0.335 |
| HMQQVIEGLDSDRDFITVPEAIALFAVGRQTLYHYIRSGKIPSVNLGQRLTRLSKKQLGELFPLR | -0.287 |
| HMSPIQLKYNEYLIYIDEGKINTAEIHGNKITGKLKEGSEYVVTIYPELIASITEKLAENNVQTQLIQ | -0.466 |
| HMAPEEIPLDRVVRLVEQGRVESIVVTGERLEVTLQNGTVYGSTKENGVGFMETLDRYQVPLEQRDFSYEV | -0.72 |
| HMFNKTKVPNFIDMNYYEEIEGNSEYDKFNFADPITKNDDTKAPGTVIDQTPEKGTRIDEEKTVIQLTIA | -0.149 |
| HMHGSTAVVPQIKNMPYSEASVRLGANGLAIEINDSVYDRDMPPGTVIESWPKAGAVVKQGRQVYVTVTA | 0.218 |
| HMYMFSGQRLKSLRKEKKMSQEKLGSLLNISKVAVSNWENAKSFPTMDNLNELAKVLEVEPHYF | -0.41 |
| HMAPRIVTIQIPVDKIRDVIGPGGKVIRSIIERTGVKIDVEDDGRVNVASADGDSAQRAIAIIQELTAT | -0.0595 |
| HMLPPLGDQELELLRFITESAPITVREAAESYGKDRGLARTTVLTMMERLRAKGYLTRSESGAANEYSP | -0.148 |
| HMITIDNYFNKEKELDFSSFPEALRKGHGFVSKATAHGSSWVSYHSSDAIKKTIDIYLSKLNEYLSNNAKA | 0.0989 |
| HMSTLTGTQRAAVVLMQMSPPNAARVMAQFTDAEAEEIAAEIVRLRKVDPEVAEQIMKDFHEAALSS | -0.645 |
| HMDRTIGEIGLVTETIDSTLESGRVMVDGLSWKARTSDNTVLEAGTRVQVKEIHGVTLTVEKA | 0.147 |
| HMNLWIDNTQVINDWTEGASERSGSIYLTAGVKPIKMQYFDSVLNAKAILRWQGPGINKSVVPSSALTPG | -0.209 |
| HMTGLSFEEKDLLGNALKLLDETERRIVILHATSGLKHREIAKQLDIPLPTVLSKYTRAIKKLKKHME | -0.144 |
| HMIQQFTYAFAKDKGVVVLPGRDVLTLGMRAGADPLVLLEARRALGSSFELEPLDRDTYERTLADVFTADA | -1.41 |
| HMDISEIEKRLLDFLEMPRSRKEIAEHLGIRTISYAIQTYITPLIDKKLVKMTIPESPRSHSQQYVRIN | -0.125 |
| HMQFAEIPNFSEMALQILRLQADGLSITKIAEALHMNPRTVKYHAQENYRKLQASNKSEALLAARNLNL | -0.418 |

| Sequence | soluble fraction (log2) |
| --- | --- |
| HMATVGENIRRYRKAQNLSAAKLAEKVGLTQGAILHYERGIRTPGISQLEKIAHALNVSPRM | 0.114 |
| HMVAEPTYGRTTDVLNIRSGPSTDDERIGQLSRGAVVTILEEKDGWYRLQRGYISADYVTQISAEEASNS | -0.546 |
| HMTLKTISLTEAIKNTNEGNYSKLVLDGNELTITEQGKETPSLKTYTEPGTSLKEQGFDLSKVEFEAREQS | -0.011 |
| HMLKLEEIQPNATVRGILPDALITVVNVKWFGSEALELTYKDTSGRVANQLLFRDDQPRLEIVE | -1.12 |
| HMAPKVHLLKVPVDKIREIIGTGGKVIRQITEETGAKIDISDDGSVKVSSPDQSSIDAATTWITGIIAE | -0.102 |
| HMPDPLVEIRSAVHSNYAGMIAMLGADNRVYLGREEHYSYQDGQPGQYDNRDGSLLFVSDQPDIYYFL | -1.21 |
| HMTEAIDVPNLVGQNYSDVKSNSSYKFNWDIINVYDSGKPEGEIIKQEPEAGSKKVKENAVITLTVN | -0.0209 |
| HMGIMSEITHRVLRLLGLLESRSTWTGSDLAERLGVTQRTIRRDVIRLRELGYQVDSVQGLDGGYRMS | -0.0721 |
| HMLNSLDATQRLKLNKDGVVVFNFGKYVDQSVIDIFKKEKGYYNWMMSKDFSQQVKNIITKIYQEEIIG | -0.0228 |
| HMHNQIGDKIRELRTRSNLTQADLGKLVGVSMQAVSKWERGGTPDIDVLLSVAKYFNISLDEMVGRT | -1.63 |
| HMGNKWALLVVFILNENGSTRFNQLARQIPDISTKVLSNTLQILEADGLVKRTVFPEVPIRVEYELTATGK | -0.987 |
| HMEDEFNQIASQKNVPSFLGKGKKEVINIAKKNKIKINLSGNGYVKRQIPAPGEVISHLDEVTIFLEPG | -0.179 |
| HMEKTTTLFDETTNPGIIYIGKAMPTGSAISEAAAVWAIKTIDTTTDTEIKWADGVTTYTKVWNNRASYSY | -1.35 |
| HMGFTDREREIIRNDLVATGRELFGTFGLKKTSIEDLTKAVGIAQGSFYTFFNSKEELYLEVMDREGEA | -1.47 |
| HMENIEVDFGVGDTVSVIGGAWKDTVGVVQAMNPNKQSLTINVELFGRETPVEISFTDVQKM | -0.962 |
| HMNYKLESYLKKVDDQLNFIPVSDKADILSELKNTFYERLLNGQTEEEILDEMESPRELALSYMSES | -1.38 |
| HMNLEQTIVLGKRLFNNALDTLGKKQRSIKNKQINKLLELLNFKNMNELYQSIGVGDKNPLLMAQMML | -0.045 |
| HMRKIKDVLRLKLHAGLSHERVAASLNISKGVVAKYTSLAAAAGLDWPTVERLSEAALERRLV | 0.22 |
| HMRGDQLREHLLWTAKDVFLELGFERASMDAVAARAETSKRSLYAHFESKEKLFLAVIDLVRG | -1.65 |
| HMRGINDLSLVDPQGRIRKDGEQYVVAFGRHKGKEISQIISQDPSYLNWLLSPKGIEDDATRELIRTQYS | -0.0946 |
| HMQDNLKKYMDKLSQRDAELIVYKYLWNMSEKEISEMFHIKQEQVHVYVGRAKKRLFKIIKKEME | 0.111 |
| HMNPDMIAGVLKVPAAAGRLRSALFELGVVDDESYDDDGASRLTVTASQSDLERIVAQAGLVFEDVLVERR | -1.3 |
| HMKSKPRVPFGSLVEMGILKPGSILFDPKGKIKTKVMVDGSIKYKETEGSIHKVAAQIMGTESYNGWTYW | -0.0629 |
| HMLQMSDSSALEAILDEVLGSEMGQKALSDIEAGNMKAMGFIIGQSMKLSKGQANPQIINKLLQQRLK | -0.487 |
| HMERKMKNNISDQTTYDTDKILNFNGKGYLNGLVIPNNYQIKEEGYYVFRQVALDGREQILYFTIQDLS | -1.56 |
| HMGDVSGFLRGVLADGPVPAKTVFSEASGAGYSRDQIQRAARKIGVERRKTGMAGGWVWELEP | -0.038 |
| HMATVELELKPEELRAGMILTKDLISGTGMMLLNKGVTLDNVKVEAIQRYYQLDPPLHGVFALVHGK | -0.896 |
